Assay results reported in patent publication US20230265179A1 (TWIST BIOSCIENCE, published 2023).

T1: CD40L over-expressed on Expi293 cells (UniProt P29965 1-261, limits assumed)
T1 construct: whole, on cells; also called cytokine over-expressing Expi293 cells
T1 sequence (looked up): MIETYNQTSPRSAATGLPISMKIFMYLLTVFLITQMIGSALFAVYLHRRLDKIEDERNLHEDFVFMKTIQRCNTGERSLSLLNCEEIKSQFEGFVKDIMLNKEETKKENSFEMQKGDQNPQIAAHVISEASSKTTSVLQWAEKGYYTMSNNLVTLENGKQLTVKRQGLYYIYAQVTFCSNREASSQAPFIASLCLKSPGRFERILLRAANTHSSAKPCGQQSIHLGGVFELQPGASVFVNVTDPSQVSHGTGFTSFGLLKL

T2: CD40L (UniProt P29965 113-261, limits assumed)
T2 construct: SPR analyte
T2 sequence (looked up): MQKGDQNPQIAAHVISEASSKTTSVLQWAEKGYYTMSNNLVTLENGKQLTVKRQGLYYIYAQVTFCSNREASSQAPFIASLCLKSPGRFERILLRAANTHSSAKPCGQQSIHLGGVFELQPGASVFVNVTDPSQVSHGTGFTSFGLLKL


Columns and labels:
[1] = molecular target: T1, CD40L over-expressed on Expi293 cells; experiment: flow cytometry, 100 nM antibody, CD40L-Expi293 vs parent Expi293 cells;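 also: ratio is the mean fluorescence intensity on CD40L-overexpressing Expi293 cells divided by the mean fluorescence intensity on parental Expi293 cells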
Experimental: All incubations and washes were in buffer containing PBS+1% BSA. MFI Ratio is defined by the mean fluorescence intensity (MFI) of the cytokine over-expressing Expi293 cell over the Expi293 parent cell. […] EC50 was calculated in GraphPad Prism.

CD40L = molecular target: T2, CD40L; experiment: SPR (Carterra LSA), antibody amine-coupled, 1:1 model
Experimental: SPR experiments were performed on a Carterra LSA SPR biosensor equipped with a HC30M chip at 25° C. in HBS-TE. Antibodies were diluted to 10 μg/mL and amine-coupled to the sensor chip by EDC/NHS activation, followed by ethanolamine HCl quenching. Increasing concentrations of analyte were flowed over the sensor chip in HBS-TE with 0.5 mg/mL BSA with 5-minute association and 15-minute dissociation. Following each injection cycle the surface was regenerated with 2× 30-second injections of IgG elution buffer (Thermo). Data were analyzed in Carterra's Kinetics Tool software with 1:1 binding model.

Row | Binder | 100 nM FACS (MFI Ratio) [1] [ratio] | Kd (CD40L) [nM] | koff (CD40L) [s⁻¹] | kon (CD40L) [M⁻¹ s⁻¹]
1 | CD40L-42 (VHH) VHH: EVQLVESGGGLVQPGGSLRLSCAASGSMSSINAMGWFRQAPGKEREFVAVIYSSDGSTLYADSVKGRFTISADNSKNTAYLQMNSLKPEDTAVYYCAAEPYGSGSSLISEYDWGQGTLVTVSS | 40 | 2.46 | 0.000639 | 260000
2 | CD40L-27 (VHH) VHH: EVQLVESGGGLVQPGGSLRLSCAASGSISSIHAMGWFRQAPGKEREFIAVIYWRDGSSLYADSVKGRFTISADNSKNTAYLQMNSLKPEDTAVYYCAAEPYGSGSSLMSEYDWGQGTLVTVSS | 44.9 | 0.749 | 0.000155 | 207000
3 | CD40L-9 (VHH) VHH: EVQLVESGGGLVQPGGSLRLSCAASGSGLSINAMGWFRQAPGKEREFVAVIYSSDGSTLYADSVKGRFTISADNSKNTAYLQMNSLKPEDTAVYYCAAEPYGSGSSLISEYDWGQGTLVTVSS | 21.1 | 1.13 | 0.000284 | 251000
4 | CD40L-18 (VHH) VHH: EVQLVESGGGLVQPGGSLRLSCAASGSISSVNAMGWFRQAPGKEREFIAVIYWRDGSSLYADSVKGRFTISADNSKNTAYLQMNSLKPEDTAVYYCAAEPYGSGSSLISEYDWGQGTLVTVSS | 29.8 | 1.77 | 0.000391 | 221000
5 | CD40L-17 (VHH) VHH: EVQLVESGGGLVQPGGSLRLSCAASGRTSNIYAMGWFRQAPGKEREFVAVIYSSDGSTLYADSVKGRFTISADNSKNTAYLQMNSLKPEDTAVYYCAAEPYGSGSSLMSEYDWGQGTLVTVSS | 45.6 | 2.32 | 0.000363 | 157000
6 | CD40L-12 (VHH) VHH: EVQLVESGGGLVQPGGSLRLSCAASGRSFSTYTMGWFRQAPGKEREFVAVIYTSDGANLYADSVKGRFTISADNSKNTAYLQMNSLKPEDTAVYYCAAETYGSGSSLMSEYDWGQGTLVTVSS | 46.2 | 1.03 | 0.000266 | 257000
7 | CD40L-6 (VHH) VHH: EVQLVESGGGLVQPGGSLRLSCAASGSIDNIHAMGWFRQAPGKEREFIAVIYWRDGSSLYADSVKGRFTISADNSKNTAYLQMNSLKPEDTAVYYCAAEPYGSGSSLISEYDWGQGTLVTVSS | 67.4 | 0.319 | 8.01e-05 | 251000
8 | CD40L-21 (VHH) VHH: EVQLVESGGGLVQPGGSLRLSCAASGRIFSTYFMGWFRQAPGKEREFVAASYTGGSGGSTVYADSVKGRFTISADNSKNTAYLQMNSLKPEDTAVYYCAAWLNGGNRWGQGTLVTVSS | 99.2 | 53.8 | 0.00083 | 15400
9 | CD40L-22 (VHH) VHH: EVQLVESGGGLVQPGGSLRLSCAASGVTLDDYAMGWFRQAPGKERELVAAITNGGITTHYADSVKGRFTISADNSKNTAYLQMNSLKPEDTAVYYCAADVGPTVKWGQGTLVTVSS | 47.6 | 1.02 | 0.000394 | 387000
10 | CD40L-20 (VHH) VHH: EVQLVESGGGLVQPGGSLRLSCAASGVITLDSNAMGWFRQAPGKEREFVAAITWDGGYTRYADSVKGRFTISADNSKNTAYLQMNSLKPEDTAVYYCAAEATFPTWNRGSEADYDWGQGTLVTVSS | 24.6 | 1.25 | 0.000271 | 217000
11 | CD40L-19 (VHH) VHH: EVQLVESGGGLVQPGGSLRLSCAASGTITSAVFMGWFRQAPGKEREWVATISSHGLPVYADSVKGRFTISADNSKNTAYLQMNSLKPEDTAVYYCAIDEGMDYDGNFYDWGQGTLVTVSS | 1.9 | 6.72 | 0.00119 | 177000
12 | CD40L-15 (VHH) VHH: EVQLVESGGGLVQPGGSLRLSCAASGFTFDDYDMGWFRQAPGKERELVASITSGGSTNYADSVKGRFTISADNSKNTAYLQMNSLKPEDTAVYYCAIPHGIDLYTFDWGQGTLVTVSS | 29 | 1.29 | 0.000384 | 299000
13 | CD40L-16 (VHH) VHH: EVQLVESGGGLVQPGGSLRLSCAASGRIFSTYFMGWFRQAPGKEREWISTVYSNGHTYYADSVKGRFTISADNSKNTAYLQMNSLKPEDTAVYYCAAWLNGGNRWGQGTLVTVSS | 47.8 | 7.93 | 0.000278 | 35100
14 | CD40L-11 (VHH) VHH: EVQLVESGGGLVQPGGSLRLSCAASGRTWNDLDMGWFRQAPGKEREFVAAISMSGEDAAYADSVKGRFTISADNSKNTAYLQMNSLKPEDTAVYYCASDHYDTDTKSDVYNWGQGTLVTVSS | 84 | 0.882 | 0.000574 | 651000
15 | CD40L-14 (VHH) VHH: EVQLVESGGGLVQPGGSLRLSCAASGFTFSTYDMGWFRQAPGKEREFVAAVSQSGLLTFYADSVKGRFTISADNSKNTAYLQMNSLKPEDTAVYYCASDHYDTDTKSDVYNWGQGTLVTVSS | 22.5 | 1.78 | 0.000538 | 303000

Second part, the binder after the results:

Row | 100 nM FACS (MFI Ratio) [1] [ratio] | Kd (CD40L) [nM] | koff (CD40L) [s⁻¹] | kon (CD40L) [M⁻¹ s⁻¹] | Binder
16 | 24.3 | 4.04 | 0.000633 | 157000 | CD40L-30 (VHH) VHH: EVQLVESGGGLVQPGGSLRLSCAASGNIFRINAMGWFRQAPGKEREFVAVIYSSDGSTLYADSVKGRFTISADNSKNTAYLQMNSLKPEDTAVYYCAAEPYGSGSSLISEYDWGQGTLVTVSS
17 | 66.7 | 1.27 | 0.000315 | 248000 | CD40L-59 (VHH) VHH: EVQLVESGGGLVQPGGSLRLSCAASGFTLDYYAMGWFRQAPGKERELVASISNGGLSTYYADSVKGRFTISADNSKNTAYLQMNSLKPEDTAVYYCAADVGPTVKWGQGTLVTVSS
18 | 91.9 | 7.56 | 0.000453 | 59900 | CD40L-52 (VHH) VHH: EVQLVESGGGLVQPGGSLRLSCAASGRIFSTYFMGWFRQAPGKEREWVSTIYSNGTPAYADSVKGRFTISADNSKNTAYLQMNSLKPEDTAVYYCAAWLNGGNRWGQGTLVTVSS
19 | 152 | 0.272 | 6.18e-05 | 227000 | CD40L-32 (VHH) VHH: EVQLVESGGGLVQPGGSLRLSCAASGFGFGSYDMGWFRQAPGKEREFVAAIYSDGGSAYYADSVKGRFTISADNSKNTAYLQMNSLKPEDTAVYYCASDHYDTDTKSDVYNWGQGTLVTVSS
20 | 68.4 | 0.422 | 0.000208 | 492000 | CD40L-56 (VHH) VHH: EVQLVESGGGLVQPGGSLRLSCAASGFTLDHYDMGWFRQAPGKEREFVAVINWSGAYTEYADSVKGRFTISADNSKNTAYLQMNSLKPEDTAVYYCASDHYDTDTKSDVYNWGQGTLVTVSS
21 | 18.5 | 6.5 | 0.000581 | 89300 | CD40L-31 (VHH) VHH: EVQLVESGGGLVQPGGSLRLSCAASGFTFDDSDMGWFRQAPGKEREFVAVVNWSGSSESYADSVKGRFTISADNSKNTAYLQMNSLKPEDTAVYYCASDHYDTDTKSDVYNWGQGTLVTVSS
22 | 74.2 | 0.806 | 0.000319 | 396000 | CD40L-40 (VHH) VHH: EVQLVESGGGLVQPGGSLRLSCAASGFTFDDYDMGWFRQAPGKERELVAAISATGDDTYYADSVKGRFTISADNSKNTAYLQMNSLKPEDTAVYYCASDHYDTDTKSDVYNWGQGTLVTVSS
23 | 83.8 | 0.251 | 0.000173 | 690000 | CD40L-43 (VHH) VHH: EVQLVESGGGLVQPGGSLRLSCAASGFSLDDYDMGWFRQAPGKEREFVAVISWSGAYTEYADSVKGRFTISADNSKNTAYLQMNSLKPEDTAVYYCASDHYDTDTKSDVYNWGQGTLVTVSS
24 | 131 | 0.7 | 0.000577 | 824000 | CD40L-50 (VHH) VHH: EVQLVESGGGLVQPGGSLRLSCAASGFTFDDSDMGWFRQAPGKEREFVAAISMSGEDAAYADSVKGRFTISADNSKNTAYLQMNSLKPEDTAVYYCASDHYDTDTKSDVYNWGQGTLVTVSS
25 | 100 | 0.758 | 0.000399 | 526000 | CD40L-54 (VHH) VHH: EVQLVESGGGLVQPGGSLRLSCAASGFTFDDYDMGWFRQAPGKEREFVAAIAWTGTNSYYADSVKGRFTISADNSKNTAYLQMNSLKPEDTAVYYCASDHYDTDTKSDVYNWGQGTLVTVSS
